Series [1] relates to U87MG xenograft tumors. The conditions noted are these: in vivo; cited from earlier work. The procedure: The cyclic RGD peptides c(RGDfK) and […] have frequently been used for radiolabeling. c(RGDfK), cyclo [Arg-Gly-Asp-D-Phe-Lys] only differs from c(RGDyK), cyclo [Arg-Gly-Asp-D-Tyr-Lys], in one amino acid, D-Phenylalanine (D-Phe) instead of D-tyrosine (D-Tyr). D-Tyr is more hydrophilic than D-Phe and c(RGDyK) has therefore been reported as preferable due to faster renal excretion. In our study we found a faster decrease of radioactivity in kidneys, intestine, and liver from 1 to 18 h (2.2 to 0.5, 1.6 to 0.4, and 1.1 to 0.4%ID/g) than that reported for ^64Cu-NODAGA-c(RGDfK) in the sam ... || NODAGA-c(RGDy/fK) has been labeled with ^68Ga and NODAGA-c(RGDfK) also with ^64Cu. One paper compared ^68Ga- and ^64Cu-NODAGA-c(RGDfK) and found the highest tracer uptake using ^68Ga-NODAGA-c(RGDfK) compared to ^64Cu-NODAGA-c(RGDfK) (5.2 versus 3.8%ID/g, 1 h p.i. in highly angiogenic U87MG xenograft tumors) but also 3 times higher tumor-to-blood ratio [12]. We found similar T/B ratio (12.7) after 1 hour using ^64Cu-NODAGA-c(RGDyK) as they did with ^64Cu-NODAGA-c(RGDfK). The advantage of ^64Cu labeling is the possibility of delayed imaging up to 12 or 18 h post ...

On the set-up of series [2]: species or system mice. As to conditions: mouse, in vivo. The method, then:
Dose Assessment/EXponential Modeling software (OLINDA/EXM; Vanderbilt University, Nashville, TN, USA). To ensure a conservative estimate, the urinary elimination fraction was set to 75% with voiding intervals of 5 hours. The effective dose for both adult male and female were then calculated using OLINDA/EXM.

Series [3] can be described thus: in vivo. As to conditions: nude, mouse, iv, 1.6 MBq, total radioactivity. The method, then: A longitudinal dynamic study was performed scanning a mouse at 1, 2, and 18 hours after intravenous injection of 1.6 MBq ^64Cu-NODAGA-c(RGDyK), allowing dynamic information of the tracer biodistribution in tumors as well as in the other organs of interest. The PET scans were performed using a small animal PET scanner (MicroPET Focus 120, Siemens Medical Solutions, Knoxville, TN, USA). The energy window for the emission PET scans was set to 350–650 keV and the time resolution was 6 ns. Scan time was 10 min.
The acquired data for emission scan was stored in list-mode format and postprocessed to obtain 2 bytes 128 × 144 × 32 sinograms. Finally, the emission sinograms were reconstructed using MAP Algorithms and resulted into 4-byte 256 × 256 × 95 image sets with a zoom factor of 1.443 and a voxel size of 0.87 × 0.87 × 0.79 mm^3. Furthermore, the emission sinograms were corrected for dead time and decay time. Scatter and attenuation corrections were not applied to the emission data. The system was calibrated to provide activity concentrations as Bq/cc.
The small animal CT scans of the mouse parallel with the PET scans were acquired using a small animal computed tomography (microCAT II, Siemens Medical Solutions). The acquisition time of each CT scan was 6.5 minutes generating 360 projections at 360° arc. The X-ray source settings were 75 kVp, 500 μA, and 270 ms for the voltage, the current, and the exposure time, respectively. The CT projections on the 3,000 × 2,970 CCD crystal were binned by 4 to increase sensitivity and reduce the dataset size. The projections were reconstructed by real-time reconstruction algorithm (the COBRA toolbox) using Shepp-Logan filter into 768 × 768 × 512 matrix with a voxel size of 0.092 × 0.092 × 0.092 mm^3.
The fusion of the PET and CT images was performed manually using the ASIPro Toolbox (Siemens Medical Solutions). Also the analyses of PET images were performed in the ASIPro toolbox.
The measurement of the activity uptake in the tumors and the organs were estimated by manually outlining on CT images. […] The 3D ROIs of the organs were then applied on the corresponding PET images. The results of these ROIs acquired the concentration of the tracer in the organs expressed in percentage of the injected dose per gram tissue (%ID/g).

Series [4] deals with human neuroendocrine tumor xenografts (H727). Nature of the series: Biodistribution (gamma counting) in mice with H727 xenografts. The conditions noted are these: female, NMRI nude, mouse, in vivo, iv, 2 MBq, 18 h. The procedure: (§1) Female NMRI (Naval Medical Research Institute) nude mice (6 weeks upon arrival) were acquired from Taconic Europe, Lille Skensved, Denmark. The mice were acclimated one week in the animal facilities before taken into experiments. […] […] Hypnorm^R (Janssen Pharmaceutica NV, Beerse, Belgium)/Dormicum^R (Roche, Basel, Switzerland). Tumors were then grown for 3-4 weeks (average tumor volume 210 mm^3). Animal care and experimental procedures were performed under the approval of the Danish Animal Welfare Council (2006/561-1124). Tumor bearing mice were anesthetized with 3% sevoflurane (Abbott Scandinavia AB, Solna, Sweden) mixed with 35% O2 in N2. […] Mice were sacrificed by neck drawing and tumors, organs (liver, kidneys, lung, spleen, heart, intestine, and muscle) and blood were collected, weighted, and radioactivity measured in a gamma counter (2480 Wizard^2, Perkin Elmer, MA, USA). Tumors were immediately placed in tubes containing RNAlater^R (Ambion Inc., TX, USA), stored overnight at 4°C, RNAlater^R then removed, and tumors stored at -80°C until total RNA extraction and further QPCR experiments were performed. […] (0.97 ± 0.03, 0.64 ± 0.04, 0.65 ± 0.04, and 0.62 ± 0.04) and decreasing further at 18 h p.i.

Assay in series [5]: as above
As to conditions: female, NMRI nude, mouse, in vivo, iv, 2 MBq, total radioactivity. The procedure:
as §1

The nature of series [6]: in vitro. It counts as in vitro ADME, nude mice. The conditions noted are these: nude, mouse, plasma. The method, then:
The product (Figure 1) was used without further purification. HPLC analysis was performed with a Jupiter column, 4u Proteo 90A, 250 × 4.6 mm (Phenomenex, Torrance, CA, USA) and flow 1.5 mL/min. The HPLC mobile phase was solvent A, 0.1% trifluoroacetic acid in water, and solvent B, 0.1% trifluoroacetic acid in acetonitrile. Gradient: 0–2 min 15% B, 2–7 min 15–40% B, and 7–10 min 40–15% B. […] Plasma was mixed with equal amounts of acetonitrile after incubation. The resulting mixture was centrifugated and the supernatant was collected and filtered.

Read-outs that look alike come from different tables or passages of the source.

What is called fraction remaining is the share of the starting amount still present when the sample was taken. Lower therefore signals more turnover.

Regarding ^68Ga-NODAGA-c(RGDfK) (head to tail), in series [1], the “tumor-to-blood ratio, times higher than ^64Cu-NODAGA-c(RGDfK)” value is 3 times.
As for `N=C(N)NCCC[C@@H]1NC(=O)[C@H](CCCCNC(=O)CCC(C(=O)O)N2CCN(CC(=O)O)CCN(CC(=O)O)CC2)NC(=O)[C@@H](Cc2ccc(O)cc2)NC(=O)[C@H](CC(=O)O)NC(=O)CNC1=O` (stereo partly drawn) [^64Cu-NODAGA-c(RGDyK), metal not drawn], in series [2], the “Residence time, Heart” value is on record as 3.54E − 03 Bq ∗ h/Bq; the “Residence time, Kidneys” value turned out to be 2.10E − 01 Bq ∗ h/Bq; the “Residence time, Liver” value amounted to 3.00E − 01 Bq ∗ h/Bq; the “Residence time, Lungs” value was 1.29E − 02 Bq ∗ h/Bq. Further, in series [2], the “Residence time, Small intestine” value was determined as 2.79E − 01 Bq ∗ h/Bq and the “Residence time, Spleen” value came out at 1.20E − 02 Bq ∗ h/Bq. In series [3], the tissue to tissue ratio is 6.9 ± 0.8, the tissue uptake at 1 h was 1.15 %ID/g, the tissue uptake at 2 h came out at 0.99 %ID/g and the tissue uptake at 18 h was found to be 0.76 %ID/g. Besides, in series [4], the “%ID/g intestines” value is 0.4 %ID/g, the “%ID/g kidneys” value is reported as 0.5 %ID/g and the “%ID/g liver” value turned out to be 0.4 %ID/g. Moreover, in series [5] (%ID/g intestines), the tissue uptake at 1 h came to 1.6 ± 0.16 %ID/g, the tissue uptake at 2 h turned out to be 0.64 ± 0.04 %ID/g and the tissue uptake at 18 h was found to be 0.43 ± 0.04 %ID/g. For the same compound, in series [5] (%ID/g kidneys), the tissue uptake at 1 h is 2.2 ± 0.11 %ID/g, the tissue uptake at 2 h was found to be 0.97 ± 0.03 %ID/g and the tissue uptake at 18 h amounted to 0.51 ± 0.02 %ID/g. In addition, in series [5] (%ID/g liver), the tissue uptake at 1 h stood at 1.05 ± 0.17 %ID/g, the tissue uptake at 2 h was 0.65 ± 0.04 %ID/g and the tissue uptake at 18 h turned out to be 0.43 ± 0.02 %ID/g. For the same compound, in series [5] (%ID/g spleen), the tissue uptake at 1 h was 0.94 ± 0.11 %ID/g, the tissue uptake at 2 h worked out at 0.62 ± 0.04 %ID/g and the tissue uptake at 18 h stood at 0.33 ± 0.02 %ID/g. In series [5] (Mean %ID/g for H727 tumors), the tissue uptake at 2 h came to 0.68 ± 0.06 %ID/g and the tissue uptake at 18 h came out at 0.63 ± 0.04 %ID/g. In series [5] (Tumor-to-blood ratio), the tissue to tissue ratio at 1 h was 12.7, the tissue to tissue ratio at 2 h worked out at 37.2 and the tissue to tissue ratio at 18 h was 20.2. Also, in series [5] (Tumor-to-intestine ratio), the tissue to tissue ratio at 1 h was determined as 0.72 ± 0.08, the tissue to tissue ratio at 2 h worked out at 1.06 ± 0.11 and the tissue to tissue ratio at 18 h worked out at 1.53 ± 0.11. For the same compound, in series [5] (Tumor-to-liver ratio), the tissue to tissue ratio at 1 h was 1.08 ± 0.11, the tissue to tissue ratio at 2 h stood at 1.03 ± 0.11 and the tissue to tissue ratio at 18 h was 1.54 ± 0.1. In series [5] (Tumor-to-muscle ratio), the tissue to tissue ratio is 6.5 ± 0.7, the tissue to tissue ratio at 1 h is 4.99 ± 0.59, the tissue to tissue ratio at 2 h came to 7.34 ± 1.16 and the tissue to tissue ratio at 18 h came out at 7.09 ± 0.52. Further, in series [5] (1 h p.i., biodistribution, H727 xenograft mice, read-out: Tumor-to-kidney ratio), the tissue to tissue ratio at 1 h is 0.51 ± 0.05. Moreover, the tissue uptake at 1 h in series [5] (1 h p.i., i.v. 2.0 ± 0.7 MBq, gamma counter, mean ± SEM, read-out: Mean %ID/g for H727 tumors) was found to be 1.15 ± 0.13 %ID/g. Further, the tissue to tissue ratio at 18 h in series [5] (18 h p.i., biodistribution, H727 xenograft mice, read-out: Tumor-to-kidney ratio) came out at 1.2 ± 0.09. In addition, in series [6], the share remaining at 24 h, 20 MBq/mL worked out at 88%.

The record behind these values is article PMC3469102, “^64Cu-NODAGA-c(RGDyK) Is a Promising New Angiogenesis PET Tracer: Correlation between Tumor Uptake and Integrin α V β 3 Expression in Human Neuroendocrine Tumor Xenografts” (International Journal of Molecular Imaging, 2012).
